Measured values taken from patent publication CN109942708A (SHANGHAI KEQI PHARMACEUTICAL TECH CO LTD, dated 2019).
“And” between values parts separate entries of the source, which are not always exact repeats. Equal values may be shown once.

T1: CD38 (UniProt P28907 43-300)
T1 construct: Coated antigen in the specificity ELISA; also called CD38抗原
T1 sequence (looked up): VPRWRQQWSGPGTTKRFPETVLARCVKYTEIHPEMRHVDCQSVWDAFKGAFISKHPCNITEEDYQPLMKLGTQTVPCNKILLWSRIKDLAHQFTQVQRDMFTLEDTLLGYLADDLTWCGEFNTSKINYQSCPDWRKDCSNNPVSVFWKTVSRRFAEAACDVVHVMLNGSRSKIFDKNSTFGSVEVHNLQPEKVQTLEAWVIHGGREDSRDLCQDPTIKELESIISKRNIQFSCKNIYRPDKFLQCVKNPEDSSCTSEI

T2: CD138 (UniProt P18827 23-254, limits assumed)
T2 construct: Coated antigen in the specificity ELISA; also called CD138抗原
T2 sequence (looked up): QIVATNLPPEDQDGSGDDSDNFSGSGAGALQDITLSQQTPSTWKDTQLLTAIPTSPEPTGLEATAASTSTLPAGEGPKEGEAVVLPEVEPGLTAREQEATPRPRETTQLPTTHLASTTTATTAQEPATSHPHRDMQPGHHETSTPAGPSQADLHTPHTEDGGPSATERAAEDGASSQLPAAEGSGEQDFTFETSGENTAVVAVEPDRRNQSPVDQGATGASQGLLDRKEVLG

T3: BCMA抗原 (UniProt Q02223 1-54)
T3 construct: Recombinant BCMA antigen as immobilised on the Biacore chip and coated in the specificity ELISA; also called B细胞成熟抗原; B cell maturation antigen
T3 sequence (looked up): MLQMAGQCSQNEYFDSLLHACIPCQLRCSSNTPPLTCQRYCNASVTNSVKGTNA


Experiments:
BCMA-FC抗原 [1] = biological target: BCMA-FC抗原 (UniProt Q02223); test: phage ELISA on coated BCMA-FC, helper phage control
BCMA-his抗原 [2] = biological target: BCMA-his抗原 (UniProt Q02223); test: phage ELISA on coated BCMA-his, helper phage control
BCMA-his抗原 [3] = biological target: BCMA-his抗原 (UniProt Q02223); test: as above; remark: listed apart in the source
BCMA-FC抗原 [4] = biological target: BCMA-FC抗原 (UniProt Q02223); test: phage ELISA on coated BCMA-FC
BCMA-his抗原 [5] = biological target: BCMA-his抗原 (UniProt Q02223); test: phage ELISA on coated BCMA-his
CD38 = biological target: T1, CD38; test: ELISA on antigen coated at 10ug/mL
CD138 = biological target: T2, CD138; test: ELISA on antigen coated at 10ug/mL
BCMA抗原 = biological target: T3, BCMA抗原; test: SPR, Biacore T2000, BCMA amine-coupled to the chip, VHH injected, 25°C

OD450 (BCMA-FC抗原 [1])	OD450 (BCMA-his抗原 [2])	OD450 (BCMA-his抗原 [3])	OD450 (BCMA-FC抗原 [4]) [OD450]	OD450 (BCMA-his抗原 [5]) [OD450]	binding result (CD38)	binding result (CD138)	Kd (BCMA抗原) [nM]	Molecule
0.518 OD450 and 0.332 OD450	0.85 OD450 and 0.631 OD450	2.36 OD450 and 2.38 OD450	–	–	–	–	–	M13K07
–	–	–	2.96	2.33	no binding	no binding	2.14	BCMA单域抗体B1 (VHH, FITC-labelled for flow cytometry; also called B1抗体) VHH: QVQLVESGGGLVQPGGSLRLSCTASGSILSIYAMGWYRQAPGKQRELVAAINISSNTFYRDSVKGRFTISRDNAENTVYLQMNSLKPEDTAVYYCNVAPWGDYDVKTDFGGWGQGTQVTVSS
–	–	–	–	2.76	no binding	no binding	0.32	BCMA单域抗体B65 (VHH, FITC-labelled for flow cytometry; also called B65抗体) VHH: QLQLVESGGGLVQPGGSLRLSCAASGSISGIYAMGWYRQAPGKQRRLVAAITSGGDTFHADSVKGRFTISRDNAKNTMYLQMNSLKPEDTAVYYCNVAPWGDYDVRADFGSWGQGTQVTVSS
